Assay results from patent US20180030151A1.
Read-outs that look alike come from different tables or passages of the source.

Assays:
[1] = biological target: recombinant human TFPI (tissue factor pathway inhibitor) (human) (UniProt P10646); test: cell-based or functional assay
[2] = biological target: recombinant human TFPI (tissue factor pathway inhibitor) (human) (UniProt P10646)
[3] = biological target: recombinant human TFPI (tissue factor pathway inhibitor) (human) (UniProt P10646); test: cell-based or functional assay; remark: listed apart in the source
[4] = biological target: recombinant human TFPI (tissue factor pathway inhibitor) (human) (UniProt P10646); test: cell-based or functional assay; remark: listed apart in the source
[5] = biological target: recombinant human TFPI (tissue factor pathway inhibitor) (human) (UniProt P10646); test: cell-based or functional assay; remark: listed apart in the source
[6] = biological target: recombinant human TFPI (tissue factor pathway inhibitor) (human) (UniProt P10646); remark: listed apart in the source
[7] = biological target: recombinant human TFPI (tissue factor pathway inhibitor) (human) (UniProt P10646); remark: listed apart in the source

B1: mAb2021 (anti-TFPI Ab, Novo Nordisk) (antibody, from another filing, V domains shown)
VH: EVQLVESGGGLVKPGGSLRLSCAASGFTFSNYAMSWVRQTPEKRLEWVATISRSGSYSYFPDSVQGRFTISRDNAKNSLYLQMNSLRAEDTAVYYCARLGGYDEGDAMDSWGQGTTVTVSS
VL: DIVMTQTPLSLSVTPGQPASISCKSSQSLLESDGKTYLNWYLQKPGQSPQLLIYLVSILDSGVPDRFSGSGSGTDFTLKISRVEAEDVGVYYCLQATHFPQTFGGGTKVEIKR
With B1 the A405, TF/FVIIa/FX complex assay, Ab 1.56 nM [1] was 0.044, the A405, TF/FVIIa/FX complex assay, Ab 3.13 nM [1] was 0.046 and the A405, TF/FVIIa/FX complex assay, Ab 6.25 nM [1] was 0.062. For the same binder, the A405, TF/FVIIa/FX complex assay, Ab 12.5 nM [1] was 0.105, the A405, TF/FVIIa/FX complex assay, Ab 25 nM [1] was 0.462 and the A405, TF/FVIIa/FX complex assay, Ab 50 nM [1] was 0.73. The A405, TF/FVIIa/FX complex assay, Ab 100 nM [1] was 0.852, the FXa assay % of FXa alone, 2.5 nM Ab, 10 nM TFPI [2] was 8.4% and the FXa assay % of FXa alone, 5 nM Ab, 10 nM TFPI [2] was 21%. The FXa assay % of FXa alone, 10 nM Ab, 10 nM TFPI [2] was 90.7%, the FXa assay % of FXa alone, 20 nM Ab, 10 nM TFPI [2] was 95.2% and the FXa assay OD, 2.5 nM Ab, 10 nM TFPI [2] was 0.101. It also gave an FXa assay OD, 5 nM Ab, 10 nM TFPI [2] of 0.249, an FXa assay OD, 10 nM Ab, 10 nM TFPI [2] of 1.08 and an FXa assay OD, 20 nM Ab, 10 nM TFPI [2] of 1.13. For the same binder, the % of Normalized, TF/FVIIa/FX complex assay (FX 5 nM), Ab 1.56 nM [3] was 5.3%, the % of Normalized, TF/FVIIa/FX complex assay (FX 5 nM), Ab 3.13 nM [3] was 5.7% and the % of Normalized, TF/FVIIa/FX complex assay (FX 5 nM), Ab 6.25 nM [3] was 6.1%. For the same binder, the % of Normalized, TF/FVIIa/FX complex assay (FX 5 nM), Ab 12.5 nM [3] was 10.1%, the % of Normalized, TF/FVIIa/FX complex assay (FX 5 nM), Ab 25 nM [3] was 42.5% and the % of Normalized, TF/FVIIa/FX complex assay (FX 5 nM), Ab 50 nM [3] was 90.6%. The % of Normalized, TF/FVIIa/FX complex assay (FX 5 nM), Ab 100 nM [3] was 99.4%, the % of Normalized, TF/FVIIa/FX complex assay, Ab 1.56 nM [3] was 13.6% and the % of Normalized, TF/FVIIa/FX complex assay, Ab 3.13 nM [3] was 15.7%. It also gave a % of Normalized, TF/FVIIa/FX complex assay, Ab 6.25 nM [3] of 18.2%, a % of Normalized, TF/FVIIa/FX complex assay, Ab 12.5 nM [3] of 23.7% and a % of Normalized, TF/FVIIa/FX complex assay, Ab 25 nM [3] of 100%. The % of Normalized, TF/FVIIa/FX complex assay, Ab 50 nM [3] was 101%, the % of Normalized, TF/FVIIa/FX complex assay, Ab 100 nM [3] was 102% and the A405, TF/FVIIa/FX complex assay (FX 5 nM), Ab 1.56 nM [3] was 0.043. It also gave an A405, TF/FVIIa/FX complex assay (FX 5 nM), Ab 3.13 nM [3] of 0.047, an A405, TF/FVIIa/FX complex assay (FX 5 nM), Ab 6.25 nM [3] of 0.05 and an A405, TF/FVIIa/FX complex assay (FX 5 nM), Ab 12.5 nM [3] of 0.082. The A405, TF/FVIIa/FX complex assay (FX 5 nM), Ab 25 nM [3] was 0.344, the A405, TF/FVIIa/FX complex assay (FX 5 nM), Ab 50 nM [3] was 0.733 and the A405, TF/FVIIa/FX complex assay (FX 5 nM), Ab 100 nM [3] was 0.805. For the same binder, the A405, TF/FVIIa/FX complex assay, Ab 1.56 nM [3] was 0.125, the A405, TF/FVIIa/FX complex assay, Ab 3.13 nM [3] was 0.145 and the A405, TF/FVIIa/FX complex assay, Ab 6.25 nM [3] was 0.168. The A405, TF/FVIIa/FX complex assay, Ab 12.5 nM [3] was 0.218, the A405, TF/FVIIa/FX complex assay, Ab 25 nM [3] was 0.918 and the A405, TF/FVIIa/FX complex assay, Ab 50 nM [3] was 0.929. The A405, TF/FVIIa/FX complex assay, Ab 100 nM [3] was 0.937, the % of Normalized, TF/FVIIa/FX complex assay, Ab 1.56 nM [4] was 15% and the % of Normalized, TF/FVIIa/FX complex assay, Ab 3.13 nM [4] was 15.6%. It also gave a % of Normalized, TF/FVIIa/FX complex assay, Ab 6.25 nM [4] of 17%, a % of Normalized, TF/FVIIa/FX complex assay, Ab 12.5 nM [4] of 26.3% and a % of Normalized, TF/FVIIa/FX complex assay, Ab 25 nM [4] of 102%. It also gave a % of Normalized, TF/FVIIa/FX complex assay, Ab 50 nM [4] of 104%, a % of Normalized, TF/FVIIa/FX complex assay, Ab 100 nM [4] of 104% and a % of Normalized, TF/FVIIa/FX complex assay, Ab 1.56 nM [5] of 15.8%. It also gave a % of Normalized, TF/FVIIa/FX complex assay, Ab 3.13 nM [5] of 17.9%, a % of Normalized, TF/FVIIa/FX complex assay, Ab 6.25 nM [5] of 18.8% and a % of Normalized, TF/FVIIa/FX complex assay, Ab 12.5 nM [5] of 24.4%. For the same binder, the % of Normalized, TF/FVIIa/FX complex assay, Ab 25 nM [5] was 100%, the % of Normalized, TF/FVIIa/FX complex assay, Ab 50 nM [5] was 99.6% and the % of Normalized, TF/FVIIa/FX complex assay, Ab 100 nM [5] was 101%. For the same binder, the FXa assay % of FXa alone, 2.5 nM Ab, 10 nM TFPI [6] was 5.6%, the FXa assay % of FXa alone, 5 nM Ab, 10 nM TFPI [6] was 10.7% and the FXa assay % of FXa alone, 10 nM Ab, 10 nM TFPI [6] was 77.7%. For the same binder, the FXa assay % of FXa alone, 20 nM Ab, 10 nM TFPI [6] was 84.5%, the FXa assay OD, 2.5 nM Ab, 10 nM TFPI [6] was 0.0485 and the FXa assay OD, 5 nM Ab, 10 nM TFPI [6] was 0.0935. It also gave an FXa assay OD, 10 nM Ab, 10 nM TFPI [6] of 0.676, an FXa assay OD, 20 nM Ab, 10 nM TFPI [6] of 0.735 and an FXa assay % of FXa alone, 2.5 nM Ab, 10 nM TFPI [7] of 8.5%. For the same binder, the FXa assay % of FXa alone, 5 nM Ab, 10 nM TFPI [7] was 66.6%, the FXa assay % of FXa alone, 10 nM Ab, 10 nM TFPI [7] was 92.3% and the FXa assay % of FXa alone, 20 nM Ab, 10 nM TFPI [7] was 87.6%. For the same binder, the FXa assay OD, 2.5 nM Ab, 10 nM TFPI [7] was 0.07.
